Measurements: the DeepSol protein solubility set

Assay: soluble on expression in E. coli; label from the status in PepcDB or PDB records

Sequence | soluble on expression in E. coli
MIQLGGYKPRLSLHNSLFRALVSKQGGILNDQLKQAEFIFHNVVTTGLEVQKDIYSGLIWLHSCQDEVDIGRINSLREEMKKAGFQESKEVVVSLLRAYAKEGGVEEVERTWLELLDLDCGIPSQAFVYKIEAYSKVGDFAKAMEIFREMEKHIGGATMSGYHKIIEVLCKVQQVELVETLMKEFEESGKKPLLPSFIEIAKMYFDLGLHEKLEMAFVQCLEKCQPSQPIYNIYLDSLTKIGNLEKAGDVFNEMKNNGTINVSARSCNSLLKGYLDCGKQVQAERIYDLMRMKKYEIEPPLMEKLDYILSLKKKEVKKRPFSMKLSKDQREVLVGLLLGGLQIESDKEKKSHMIKFEFRENSQAHLVLKQNIHDQFREWLHPLSNFQEDIIPFEFYSVPHSYFGFYAEHYWPKGQPEIPKLIHRWLSPHSLAYWYMYSGVKTSSGDIILRLKGSLEGVEKVVKALQAKSMECRVKKKGKVFWIGLQGTNSALFWKLIEPHVLENLKEHLKPASESLDNVKEAEEQSINFKSNSDHSDDCVNSEAHFY | not soluble
RNHWVSQYSSVKQEKNEKWQRHWREILGEDTEDLPPYRYDYGLYSGIWQANETLREQCFAALTHGNSVYERVKAFQKMTTHEHNTDDQILLSKLAQLENEIIQALEQHSQKNVSIETGSGTLCKESKHNVYRHENGPTEEQLYNSINLQHDLDRELRNIIYDRLGDDGLDEYFFLRAPLEELTENETAINWMLWGLVSDHFDVDPYQTALELNLMNAEPRWGQDERFVVVTTAA | not soluble
MIKLSNITKVFHQGTRTIQALNNVSLHVPAGQIYGVIGASGAGKSTLIRCVNLLERPTEGSVLVDGQELTTLSESELTKARRQIGMIFQHFNLLSSRTVFGNVALPLELDNTPKDEVKRRVTELLSLVGLGDKHDSYPSNLSGGQKQRVAIARALASNPKVLLCDEATSALDPATTRSILELLKDINRRLGLTILLITHEMDVVKRICDCVAVISNGELIEQDTVSEVFSHPKTPLAQKFIQSTLHLDIPEDYQERLQAEPFTDCVPMLRLEFTGQSVDAPLLSETARRFNVNNNIISAQMDYAGGVKFGIMLTEMHGTQQDTQAAIAWLQEHHVKVEVLGYV | soluble
MGSDKIHHHHHHMKILFGPVSSRRFGRSLGIDLSPSKKQCNFDCVYCELDPKKAQEKQDEIISIDKIISEVKAMLEKNVEFDFLTLTANGEPSLYPYLNELILSLRSIAKDKKLLILSNGTAVLDEDKFNALLKLDVVKFSLDSAVAKTFYRIDRALKNIDLEKMIEKMADFRARFNGDLIMEILVVKDLNDNEEEFEALNQALKKIMPLRVDLSTIDRPPAYAVKKVSEEKLLELSKLIDSTPVLLAKRHYEGEKLSFNEEELLKMLHLRSQSEIDIEVKFDEQSKTLLNQLIKEKKVKILDLAGVKFYKV | not soluble
MGRYIGPVCRLCRREGVKLYLKGERCYSPKCAMERRPYPPGQHGQKRARRPSDYAVRLREKQKLRRIYGISERQFRNLFEEASKKKGVTGSVFLGLLESRLDNVVYRLGFAVSRRQARQLVRHGHITVNGRRVDLPSYRVRPGDEIAVAEKSRNLELIRQNLEAMKGRKVGPWLSLDVEGMKGKFLRLPDREDLALPVNEQLVIEFYSR | soluble
PRRTDADGEKMLAYLNTLYADKQAFELRADSLRKEVRQRLGIDTLLAQCVNSTPILSKIRKFDGYTVQNFALETLPGLYVCGSVYTPQSKGKHALIICPNGHFGGGRYREDQQQRMGTLARMGAVCVDYDLFGWGESILQVGSTAHRSSAAHTIQAMNGLLILDYMLASRKDIDTKRIGANGGSGGGTHTVLLTTLDDRFTASAPVVSLASHFDGGCPCESGMPIQLSAGGTCNAELAATFAPRPQLVVSDGGDWTASVPALEFPYLQRIYGFYDAKDNVTNVHLPKEKHDFGPNKRNAVYDFFAEVFD | not soluble
IGDLSYSVSGNIATNNNEIVTLAGSDNMIQNGGDVVRYILKEGEAIGSYYGLETDGLYTQEEIDAGHYYKYGRKPNAGDIKYVPQRENVEWGDDITDDDRTIIGKDVPDFTYGININLQWKNFELSAFGQGVSGTSVAFESEQVFAFMLNSNPRKYHLSRWNEDNPNPNAACPRLYGGNYYDEYNKHFSDYQLFDADYFRIKTISLGYMVPKDAVTRWGLSSLKFFLTGENLFTFRADKDMKDFDPESSTGRGISAFGAKSVAFGVNVSF | not soluble
MNNVSEERVAEMIWDAVSEGATLKDVHGIPQDMMDGLYAHAYEFYNQGRLDEAETFFRFLCIYDFYNPDYTMGLAAVCQLKKQFQKACDLYAVAFTLLKNDYRPVFFTGQCQLLMRKAAKARQCFELVNERTEDESLRAKALVYLEALKTAETEQHSEQEKELEHHHHHH | soluble
MKEIELKLKGEINRLTNKTFKFDERVGEGWFSAVYFLKTREIIEEFRPKSVVTMQFFQKENAVLCGTDEVIALLQTFAKNPEELEINSLKDGDKISPFETVLTIDGPYENFGFLEGVIDGILARRTSVATNVYNVVQAARSVDKEKPVIFMGDRDDHYTQQAGDGYAAYIGGMSAQATHAMNEWWGKSGMGTMPHALIQMFNGDVVEAAKAYHKKFPEDELVVLIDYNNDVITDALRVAREFGSTLKGVRVDTSRTMIDQYFIRHPEVLGTFDPRGVNPSLVFALRKALDEEGFQHVDIVVTGGFDEKRIREFEAQNVPVDIYGVGSSLLKMNIGFTGDNVELNGKPEAKAGRKYRPNPRLERVQLEKREDM | not soluble
MNVTSGMDQILAQLKATSDLAAGGSKPSATVSTVSQADFGQLLKSAVDQVNTVQQTASQLSREFVGGNQDVELHDVMISLQKANVSFQSMIQVRNRLVTAYQEIMNMQV | not soluble
MDRLRFDHRVITENGNKQPLVMVINLSSISMAMMSYDFNSKPLLIFWETTKACGLKCEHCRASAILDALPGEMTFDQSINFLSHIKEFGKPYPIVILTGGDMLRKHRIWDIMDYLRSQEIPFSVSPAVTDLLTHEAILKFKEFGVSSVSISLDGMREVHEKVRGVAGVYDDTVKAIEDLISTGISMQINTVVMRSTVHDLPHVLKLIIDKGVKVWEVFFLIKTGRGIDREDLSPEEYENVNKFLLFATGYGIRIRTVESPIYRRITMQYGKNGLIKGGRLFDELREETVSLIGNPSKEYASSVIPTRDGFGIIFVGHDGEVYPSGFLPYSVGNVKDRSIVDIYRNSDLLNSIRNPDNLHGKCGLCEYRKVCGGSRARAFAYTGDPFGTDPSCIYEPSAVPE | not soluble
MLQKDPCLDDILENSEKLENNSNKKNIDSIDTIKLSDIIEKMIEINSIVRIEKIFEEKIVSQNPVVNVVVNDGSARGLLSLWSEQISLLNELNEGDAILIENAHAPKKYKDRIHLALSKSGKISKIESDLPTIDELLKKSSAQRNDFSRKSISELKEGIGAELRGLIVAIHSKEPYFPVCDKCNKKMTLKKGYAVCKCGNKVDEEDENLKWLFLCTCTLDDGSGTIRVTLNNNTNYLDLEELKKIIIDDEEILDVLNNKLLGLDILTSGFTIYDEYLKDTAFRCNNWNKIDIMEEFNKKLKGLEHHHHHH | soluble
MAGDPMTYRDFIGRLKENGKLVEIQQPVSPIFEASRIAKKTKGPVLFHNVSGSKVIMNLLGSRDELSSMLGVPKEEIIKKLSEVSPEGEVRLVPGSPTLEVIESEVDLTKLPILTHFEKDGAPYITAGIVVSEYEGVMNASIHRLMLVGKDKLAARLVPPRHTYLLHKKAAEKGETLPVAIVLGCDPTIIYATSTRVPAGKEFEYAAALRGTPVEVFECSNGIKVPHSEIILEGYIDTKERVDEGPFVDITGTYDMVRKEPVIHITRIIHRKDPIYHGILPAGPEHLLMMGVPYEPRIYRAVGEVTTVKNVVLTEGGCCYLHAVVQIEKQTEGDAKNAIMAAFAAHTSLKHVVVVDEDINIFDPNDVEFAIATRVKGDMDILTITNVRGSSLDPRGASDGTTTKVGIDATKVLIEKENFERAIIPEELEHHHHHH | not soluble
MEIEKENGSKRLAVLIDADNAQASVLGELLAEISKYGTLNIKRAYGDWTSSNLKSWKEHLHKYAIAPIQQFNYTSGKNATDSALIIDAMDLLHDAPLEGFCLVSSDSDFTRLATRIRESGLVVYGFGEKKTPEAFVAACDKFIYTEILRQEEQRRPESSWNDSWSKSESKALKSIIQPAIKATMKEDDWVPLASIGLYISKNHPAFDPRNYGYDKLGRLIETLDFVELKKIPFKDGSSNTHVMVRLRSLEHHHHHH | not soluble
MAGAGGQRNSEHVLCDACYFEEFDLVDAPDTIQVRVCSRCGAVHKGNRWVDIGAEDYTDIAVEQVSEALGIHVDAQSVAWQVAPEQLDKNNIRMHAEFSGVIRGTPVTEEVTVPVRISRQTCKRCGKIAGGSFASIVQVRADGRDPTDDERERAEEIAQEYVAAREETGDRNAFITETKSVDDGLDMKISTNQMGLGIAKRITAQLGGSYSDSRRLISEDEDGQELYRMTYAVRLPRYRQGEVIDPEDGDGPVLVRSVQGNLKGVRLATGEDYEASFEAGETPDARRLGFREDGQQTTLVAIEDERAVQVLDPETFESKTVPRPDYLDIDADEVPVLKSHAGLHILPAADADTDELEHHHHHH | not soluble
MSLSSPTADVEKLRRIIEVARGDRRADFVVKNAQIVDLVNEEIFEGDIAVAEGFIAGIGSYSGVEECEASNLVAVPGLIDAHTHIEMSMLTVSEFARLVVPRGTTGVVADPHEIANVLGKDGVMLMLEEARSTPLRFYCMVPSCVPSSPLETSGARIGVEEIRELLEEEEVLGLAEMMNFPGVVSADREVLEKIVLAGIVDGHAPGLRGKKLNAYIAAGASSDHETTSFEEGKEKLRLGMWVMIREGSAARNLVALKGLTGNRHTMLVTDGDRSVKDIIEEGYLDHVFRRAIEEGIDEIKALQMLTLNPAEYFGINAGLIAPSRLADIVLLKNLRKFEVRDVFVGGRRPEFKRFNHPEWAKKTVKARKITPESIQLKTGRVRVIEVYDGEIVTGEAIEEVQGVDVERDILKAVVVERHIRSGRVGKAYVRGFGLKRGAIAQSIAHDAHNIVCVGVDDGSICAAVNRVIELQGGIVVADAEVRAELPLPIAGIMSDERAERVLERLSEIEEEVRKLGCRLKSPVITLSFIALPVIPKLKLTDLGLVDVEAFRVVDLQADEGHHHHHH | not soluble
MAAQKKIPLRKCVVTGEMKPKREMVRIVRSKEGEVSIDPTGKKAGRGAYITLDPECILQAKKKNILARHLKADIDDAIYDELLALAEKEKQAGHEA | soluble
MGSDKIHHHHHHMKRLITQALDGEAGCILSDCEQYRYRLWREWDRSAPGLGFIMLNPSSADHQVNDPTITRCLQRALAGKYGRLEVVNLFPLRSTDPDGLLTHPAPLGDRPDRNECAIMDALDRCSLVICAWGAHKAAPARAAEVLRIVRMCGRGNLLYHLGLNKDGSPKHPLYIAKTKRPEPFTSIPVTQVNREYAPHR | not soluble
MNDEDSEERRHHPKVPRLARQSHPEPPGPSSSTSSTPLFTDPTIHTILDQIGQRLASFSESDVKRIKNYLSTVTVTQEACVLLLLPNKEREKLMFAEIERHILENYEYSMIIHRYVNDVLKHAIETQFVNPDKLDESNDAWKDGLKMISEQKMRSSRYTAARARSQRFAIANDSYFPRPEIVPSTDHPVFASRPSVSTQEVRTGRQQIDQEVSGRKREFHGKLIPITGVVEEPSVRINAELQQSETQQIGDSSDQTDTATPISDIATHQDPENEISPSVTEGSNDIADDAGAGDDFSESTTGAVQPEQQASEHSNSEGVEKSSCAESLKEQPDQSSPAVSNTVSENSNTDSEICSGIDQNPNSDNLESTIDVGEPLRNTSDQPSPDPCSDVQIGVNSTTKQSTDPSVNVQLGHKSSDQPSTDPSAHAQLEDNCTIQPSTDPSSNDQLGDNTSDQNSTDPSSDVPMEDPGESGSAASTPPPDWDVAEVPIPQCSGHSDGNIGGTNEVTPPEQEAQVLAPRRSERSRIKNIWLSRDEVERLRYEFVPPPSRKDIPKCTAKKPEAEIPNVEPESSSTVESQRDEDQAVASASSVAEPLEEATTTSVPEPTEFQLSRDIYSTVKPTDEAHSPPIQAQPKKKATPRRKKADDVETVVADGTATIPKPKRKRPPRKKPEPKPNIVFETTPNPPTESFAANNNFQQFQFQNQPGSWTYNNGFGNGYGYGGGTTGYMDNLVGRGFDTVSQQPGFQNQGYEFTGLPANNSNNFPFL | not soluble
